Data on one substance can be found in US20230218753A1.

Assay [1] concerns the target activated human complement C1s (UniProt P09871). The assay can be described thus: direct binding.
Assay [2] shares this target. Kind of assay: competition binding with 50 pM biotinylated TNT005.

Chain of activated human complement C1s (P09871 16-688): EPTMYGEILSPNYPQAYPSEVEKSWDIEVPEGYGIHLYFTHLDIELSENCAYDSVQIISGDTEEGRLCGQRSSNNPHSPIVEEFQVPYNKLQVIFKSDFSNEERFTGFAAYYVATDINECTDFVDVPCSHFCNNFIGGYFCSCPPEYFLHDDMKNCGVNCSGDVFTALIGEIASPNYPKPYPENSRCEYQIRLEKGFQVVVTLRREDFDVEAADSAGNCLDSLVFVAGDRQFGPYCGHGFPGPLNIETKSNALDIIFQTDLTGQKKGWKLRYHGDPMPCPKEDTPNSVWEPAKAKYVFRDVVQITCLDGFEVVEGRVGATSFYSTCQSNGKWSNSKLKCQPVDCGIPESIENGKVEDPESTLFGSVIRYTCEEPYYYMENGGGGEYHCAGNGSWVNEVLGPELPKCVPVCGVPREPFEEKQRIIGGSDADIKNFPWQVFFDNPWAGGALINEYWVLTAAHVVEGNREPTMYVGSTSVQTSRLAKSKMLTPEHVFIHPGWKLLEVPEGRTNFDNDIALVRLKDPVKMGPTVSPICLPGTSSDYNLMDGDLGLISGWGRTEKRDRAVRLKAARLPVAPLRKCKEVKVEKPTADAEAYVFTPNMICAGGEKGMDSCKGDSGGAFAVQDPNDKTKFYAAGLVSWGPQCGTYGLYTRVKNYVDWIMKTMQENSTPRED

For orientation: EC50 means the concentration needed to bring the measured effect to its halfway point. The low end stands for higher potency in that assay, the high end for lower potency in that assay. Usually IC50 stands for the point on the concentration scale where inhibition reaches its midpoint. Low readings indicate inhibition by little substance, high ones a need for much substance. In the case of TNT005, in assay [1], the EC50 was determined as 0.0559 nM. The IC50 in assay [2] worked out at 0.0395 nM.
